Measured values: the supplement of paper PMC9732359
± gives the uncertainty stated by the source.

Test: protein stability index of a GFP-peptide fusion (yeast GPS) (PSI 1-4); higher = more stable; sorted into four equal gates, so the index is relative within each strain
Procedure, shortened: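 Each library plasmid carries Cherry plus GFP with a tiled 17-residue yeast protein peptide fused downstream, and the pooled library was carried in yeast. Mid-log cultures in leucine-free medium were sorted into four equal gates by GFP/Cherry ratio. Reads from Illumina sequencing of PCR-amplified plasmids from each gate were assigned to strains by barcodes. Per peptide, the protein stability index was computed as the summed products of gate read frequency and gate number.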

Sequence: VIPIRRGYWGTNLGQPH [RPS2]
- protein stability index (doa10∆): 2.04 ± 0.074
- protein stability index (pdr5∆): 1.67 ± 0.11
- protein stability index (san1∆): 1.91 ± 0.18
- protein stability index (ubr1∆): 1.79 ± 0.13

Sequence: QKKRVVDPFTRKEWFDI [RPS1A]
- protein stability index (doa10∆): 2.77 ± 0.15
- protein stability index (pdr5∆): 3.1 ± 0.18
- protein stability index (san1∆): 3.03 ± 0.08
- protein stability index (ubr1∆): 3.13 ± 0.13

Sequence: GNDAKPAKVEDVQKSSD [YLR335W/NUP2]
- protein stability index (doa10∆): 3.3 ± 0.064
- protein stability index (pdr5∆): 3.2 ± 0.058
- protein stability index (san1∆): 3.17 ± 0.052
- protein stability index (ubr1∆): 3.13 ± 0.051

Sequence: SQWNDSSIDKIEDRDFL [SIR3]
- protein stability index (doa10∆): 2.99 ± 0.17
- protein stability index (pdr5∆): 3.21 ± 0.27
- protein stability index (san1∆): 3.23 ± 0.28
- protein stability index (ubr1∆): 3.32 ± 0.15

Sequence: KAIFPNTVDGDLLKLVH [FAS1]
- protein stability index (doa10∆): 2.19 ± 0.17
- protein stability index (pdr5∆): 3.06 ± 0.14
- protein stability index (san1∆): 2.22 ± 0.14
- protein stability index (ubr1∆): 1.92 ± 0.05

Sequence: HANSVVALTGLLIRSKT [YML031W/NDC1]
- protein stability index (doa10∆): 1.86 ± 0.04
- protein stability index (pdr5∆): 2.18 ± 0.046
- protein stability index (san1∆): 1.83 ± 0.052
- protein stability index (ubr1∆): 2.35 ± 0.033

Sequence: WSKTIKARTNLHQHVVL [RPC34]
- protein stability index (doa10∆): 2.11 ± 0.1
- protein stability index (pdr5∆): 1.8 ± 0.1
- protein stability index (san1∆): 1.71 ± 0.21
- protein stability index (ubr1∆): 2.34 ± 0.064

Sequence: RNLDSATLKEIKSIIEQ [SMC3]
- protein stability index (doa10∆): 3.25 ± 0.078
- protein stability index (pdr5∆): 3.51 ± 0.087
- protein stability index (san1∆): 3.2 ± 0.066
- protein stability index (ubr1∆): 3.21 ± 0.068

Sequence: ASDMSDEDIITIFKYLT [CDC53]
- protein stability index (doa10∆): 2.84 ± 0.14
- protein stability index (pdr5∆): 3.09 ± 0.13
- protein stability index (san1∆): 3.23 ± 0.082
- protein stability index (ubr1∆): 3.2 ± 0.061

Sequence: QLEGFESRKAFFLGYMI [RPB2]
- protein stability index (doa10∆): 1.22 ± 0.088
- protein stability index (pdr5∆): 2.42 ± 0.075
- protein stability index (san1∆): 1.41 ± 0.079
- protein stability index (ubr1∆): 2.49 ± 0.045

Sequence: CERRSTLKLQDTRITPS [PRE6]
- protein stability index (doa10∆): 2.53 ± 0.061
- protein stability index (pdr5∆): 2.81 ± 0.092
- protein stability index (san1∆): 3.09 ± 0.099
- protein stability index (ubr1∆): 2.82 ± 0.059

Sequence: KFFQKKIHLYEKKLEDY [YGL172W/NUP49]
- protein stability index (doa10∆): 2.83 ± 0.093
- protein stability index (pdr5∆): 2.75 ± 0.089
- protein stability index (san1∆): 2.71 ± 0.071
- protein stability index (ubr1∆): 2.94 ± 0.089

Sequence: KSRIVKVVGPRGTLTKN [RPL9A]
- protein stability index (doa10∆): 2.66 ± 0.074
- protein stability index (pdr5∆): 2.92 ± 0.058
- protein stability index (san1∆): 2.65 ± 0.052
- protein stability index (ubr1∆): 2.71 ± 0.033

Sequence: NVANVSGSTEKAFKICE [SIR3]
- protein stability index (doa10∆): 2.96 ± 0.054
- protein stability index (pdr5∆): 2.91 ± 0.048
- protein stability index (san1∆): 3.18 ± 0.043
- protein stability index (ubr1∆): 3.11 ± 0.058

Sequence: GMTPCTVSPDFVAATTN [FAS1]
- protein stability index (doa10∆): 1.83 ± 0.076
- protein stability index (pdr5∆): 1.98 ± 0.054
- protein stability index (san1∆): 1.86 ± 0.12
- protein stability index (ubr1∆): 1.99 ± 0.07

Sequence: LIFGTIASKMSLAPEAD [RPT3]
- protein stability index (doa10∆): 2.66 ± 0.044
- protein stability index (pdr5∆): 2.78 ± 0.064
- protein stability index (san1∆): 2.75 ± 0.041
- protein stability index (ubr1∆): 2.65 ± 0.038

Sequence: MFLYILKHLEEMGKLRE [RRI2]
- protein stability index (doa10∆): 3.11 ± 0.11
- protein stability index (pdr5∆): 3.16 ± 0.11
- protein stability index (san1∆): 3.04 ± 0.078
- protein stability index (ubr1∆): 3.16 ± 0.051

Sequence: VSKKWAAAGVCEKWAAS [RPL14B]
- protein stability index (doa10∆): 2.64 ± 0.077
- protein stability index (pdr5∆): 3.1 ± 0.14
- protein stability index (san1∆): 2.73 ± 0.084
- protein stability index (ubr1∆): 2.51 ± 0.066

Sequence: DDDEVDYSEIQRSRRKF [DSN1]
- protein stability index (doa10∆): 2.66 ± 0.1
- protein stability index (pdr5∆): 3.66 ± 0.23
- protein stability index (san1∆): 3.04 ± 0.2
- protein stability index (ubr1∆): 2.75 ± 0.16

Sequence: ASSKAVTRGISVLKDSD [PRE1]
- protein stability index (doa10∆): 2.4 ± 0.058
- protein stability index (pdr5∆): 2.76 ± 0.05
- protein stability index (san1∆): 2.89 ± 0.051
- protein stability index (ubr1∆): 2.67 ± 0.052

Sequence: SFFNISPDAPKEIMDKI [SIN4]
- protein stability index (doa10∆): 3.48 ± 0.11
- protein stability index (pdr5∆): 3.32 ± 0.14
- protein stability index (san1∆): 3 ± 0.13
- protein stability index (ubr1∆): 3.29 ± 0.1

Sequence: FELIELVTPKSFLFDVL [NUT1]
- protein stability index (doa10∆): 1.92 ± 0.25
- protein stability index (san1∆): 1.08 ± 0.16
- protein stability index (ubr1∆): 1.06 ± 0.12

Sequence: IDEIAYLFHNDRIIHTW [ECM29]
- protein stability index (doa10∆): 1.4 ± 0.049
- protein stability index (pdr5∆): 1.43 ± 0.054
- protein stability index (san1∆): 1.3 ± 0.081
- protein stability index (ubr1∆): 1.66 ± 0.043

Sequence: RTSTRGRGRGRGRGRGR [SNF2]
- protein stability index (doa10∆): 3.41 ± 0.11
- protein stability index (pdr5∆): 3.17 ± 0.12
- protein stability index (san1∆): 2.86 ± 0.098
- protein stability index (ubr1∆): 3.08 ± 0.15

Sequence: TNQKDTNDHVDKRTKID [ISW2]
- protein stability index (doa10∆): 2.77 ± 0.069
- protein stability index (pdr5∆): 3.05 ± 0.07
- protein stability index (san1∆): 2.81 ± 0.059
- protein stability index (ubr1∆): 2.72 ± 0.044

Sequence: LEHLHSTAFQNTPLSLP [COR1]
- protein stability index (doa10∆): 2.52 ± 0.039
- protein stability index (pdr5∆): 2.66 ± 0.033
- protein stability index (san1∆): 2.35 ± 0.035
- protein stability index (ubr1∆): 2.65 ± 0.039

Sequence: EPLTEIKNVIVSNRVAA [RPP0]
- protein stability index (doa10∆): 1.6 ± 0.076
- protein stability index (pdr5∆): 2.1 ± 0.062
- protein stability index (san1∆): 1.77 ± 0.11
- protein stability index (ubr1∆): 1.95 ± 0.07

Sequence: LLLITHHSWSQSDLEII [ARP9]
- protein stability index (doa10∆): 2.36 ± 0.08
- protein stability index (pdr5∆): 1.68 ± 0.048
- protein stability index (san1∆): 1.76 ± 0.075
- protein stability index (ubr1∆): 1.87 ± 0.068

Sequence: SLEQRTLNPDLFLYKEL [RPC82]
- protein stability index (doa10∆): 3.28 ± 0.28
- protein stability index (pdr5∆): 3.13 ± 0.19
- protein stability index (san1∆): 3.21 ± 0.092
- protein stability index (ubr1∆): 3.74 ± 0.27

Sequence: EDVLSSFYRVEKIKKIN [SSN2]
- protein stability index (doa10∆): 1.7 ± 0.28
- protein stability index (pdr5∆): 1.13 ± 0.074
- protein stability index (san1∆): 1.24 ± 0.28
- protein stability index (ubr1∆): 1.16 ± 0.089

Sequence: EGHLAEIRAKEYKTSSD [SRB2]
- protein stability index (doa10∆): 3.22 ± 0.11
- protein stability index (pdr5∆): 3.29 ± 0.081
- protein stability index (san1∆): 3.18 ± 0.051
- protein stability index (ubr1∆): 3.26 ± 0.078

Sequence: QNNFHVLIDLLNWFRTT [RGR1]
- protein stability index (doa10∆): 1.99 ± 0.064
- protein stability index (pdr5∆): 2.17 ± 0.074
- protein stability index (san1∆): 2.67 ± 0.053
- protein stability index (ubr1∆): 2.47 ± 0.09

Sequence: TKRWYKNAGLGFKTPKT [RPS11A]
- protein stability index (doa10∆): 3.32 ± 0.096
- protein stability index (pdr5∆): 3.42 ± 0.12
- protein stability index (san1∆): 3.05 ± 0.11
- protein stability index (ubr1∆): 3.5 ± 0.082

Sequence: NKQYELFMKSLIENCKK [SWI1]
- protein stability index (doa10∆): 2.58 ± 0.053
- protein stability index (pdr5∆): 2.85 ± 0.061
- protein stability index (san1∆): 2.77 ± 0.046
- protein stability index (ubr1∆): 2.66 ± 0.036

Sequence: VGVIIFILTIATAFLGY [COB]
- protein stability index (doa10∆): 2.31 ± 0.07
- protein stability index (pdr5∆): 1.84 ± 0.052
- protein stability index (san1∆): 1.82 ± 0.072
- protein stability index (ubr1∆): 2.63 ± 0.039

Sequence: SVVSQIEKGSTFGINLI [FAS1]
- protein stability index (doa10∆): 3.09 ± 0.2
- protein stability index (pdr5∆): 3.06 ± 0.11
- protein stability index (san1∆): 3 ± 0.08
- protein stability index (ubr1∆): 3.26 ± 0.076

Sequence: RAIPFRRFNSSIGRTAQ [RPL17A]
- protein stability index (doa10∆): 2.91 ± 0.07
- protein stability index (pdr5∆): 2.87 ± 0.08
- protein stability index (san1∆): 2.89 ± 0.097
- protein stability index (ubr1∆): 2.68 ± 0.06

Sequence: ESISQTPISNEQTEGEP [SRP68]
- protein stability index (doa10∆): 3.21 ± 0.1
- protein stability index (pdr5∆): 3.29 ± 0.16
- protein stability index (san1∆): 3.16 ± 0.071
- protein stability index (ubr1∆): 3.19 ± 0.065

Sequence: GKYTLGYKSTVKSLRQG [RPL30]
- protein stability index (doa10∆): 2.25 ± 0.072
- protein stability index (pdr5∆): 2.34 ± 0.049
- protein stability index (san1∆): 2.54 ± 0.09
- protein stability index (ubr1∆): 2.47 ± 0.048
